Consider one substance from patent publication US20140187758A1.

For orientation: Kd means the free concentration of one partner at which half of the binding sites on the other are occupied at equilibrium, for simple one-to-one binding. Read a low Kd as a tighter complex.

The target of assay [1] is European Corn Borer-aminopeptidase 1 (Ostrinia nubilalis).
The target of assay [2] is European Corn Borer-cadherin (Ostrinia nubilalis).

For “Cry1Ac core toxin (trypsin-cleaved Cry1Ac holotoxin) (from UniProt P05068 29-623) (ligand)”, the Kd stood at 107 nM in assay [1] and 48 nM in assay [2].
